{
  "source": "patent US20250222127A1",
  "about": "“COMPOSITIONS AND METHODS FOR TREATING AND PREVENTING TRANSPLANT-ASSOCIATED INJURY” (MUSC Foundation For Research Development, priority 2016, published 2025)",
  "molecules": {"B1": {"name": "B4scFv-Crry: anti-annexin-IV single chain antibody (B4scFv) linked to Crry; B4Crry amino acid sequence SEQ ID NO: 62 (protein)", "chain": "MSVPTQVLGLLLLWLTDARCVKLQESGPELVKPGASVKISCKASGYTFTDYYMNWVKQSHGKSLEWIGDINPNNGGTSYNQKFKGKATLTVDKSSSTAYMELRSLTSEDSAVYYCARYDYAWYFDVWGQGTTVTVSSGGGGSGGGGSGGGGDVLMTQTPLSLPVSLGDQASISCRSSQSIVHSNGNTYLEWYLQKPGQSPKLLIYKVSNRFSGVPDRFSGSGSGTDFTLKISRVEAEDLGVYYCFQGSHVPYTFGGGTKLEIKRGGGGSGGGGSCPAPSQLPSAKPINLTDESMFPIGTYLLYECLPGYIKRQFSITCKQDSTWTSAEDKCIRKQCKTPSDPENGLVHVHTGIQFGSRINYTCNQGYRLIGSSSAVCVITDQSVDWDTEAPICEWIPCEIPPGIPNGDFFSSTREDFHYGMVVTYRCNTDARGKALFNLVGEPSLYCTSNDGEIGVWSGPPPQCIELNKCTPPPYVENAVMLSENRSLFSLRDIVEFRCHPGFIMKGASSVHCQSLNKWEPELPSCFKGVICRLPQEMSGFQKGLGMKKEYYYGENVTLECEDGYTLEGSSQSQCQSDGSWNPLLAKCVSRSIIEGRHHHHHH", "modifications": "B4Crry amino acid sequence"}, "B2": {"name": "B4scFv-Crry (scFv)", "chain": "VKLQESGPELVKPGASVKISCKASGYTFTDYYMNWVKQSHGKSLEWIGDINPNNGGTSYNQKFKGKATLTVDKSSSTAYMELRSLTSEDSAVYYCARYDYAWYFDVWGQGTTVTVSSGGGGSGGGGSGGGGDVLMTQTPLSLPVSLGDQASISCRSSQSIVHSNGNTYLEWYLQKPGQSPKLLIYKVSNRFSGVPDRFSGSGSGTDFTLKISRVEAEDLGVYYCFQGSHVPYTFGGGTKLEIKRGGGGSGGGGSCPAPSQLPSAKPINLTDESMFPIGTYLLYECLPGYIKRQFSITCKQDSTWTSAEDKCIRKQCKTPSDPENGLVHVHTGIQFGSRINYTCNQGYRLIGSSSAVCVITDQSVDWDTEAPICEWIPCEIPPGIPNGDFFSSTREDFHYGMVVTYRCNTDARGKALFNLVGEPSLYCTSNDGEIGVWSGPPPQCIELNKCTPPPYVENAVMLSENRSLFSLRDIVEFRCHPGFIMKGASSVHCQSLNKWEPELPSCFKGVICRLPQEMSGFQKGLGMKKEYYYGENVTLECEDGYTLEGSSQSQCQSDGSWNPLLAKCVSRSIIEGRHHHHHH", "modifications": "125I radiolabel in the graft perfusion experiment (position not given)", "notes": "also called B4-Crry; B4Crry"}},
  "key": {"allogeneic grafts": {"system": "allogeneic grafts", "experiment": "Graft survival with B4-Crry and subtherapeutic tacrolimus", "assay_type": "in vivo", "experimental": "FIG. 6 depicts the results of example experiments depicting the survival curve from B4-Crry and subtherapeutic tacrolimus.\nExperiments were conducted to examine the effects of B4-Crry in combination with sub-therapeutic tacrolimus (also known as FK506). Tacrolimus was given at 1 mg/kg/day. […] Thus, untreated allogeneic grafts reject at the same extent as the subtherapeutic Tacrolimus treated animals. B4-Crry was given at 0 and 24 hours post-transplant and Tacrolimus was given at 1 mg/kg/day for the duration of the experiment (until full rejection of the graft)."}, "VC isografts": {"system": "VC isografts", "experiment": "Ischemia reperfusion injury of VC isografts, histology scoring of skin and muscle", "assay_type": "in vivo", "settings": "VC isografts in treated wild type mice", "experimental": "Experiments were conducted to evaluate the effects of antibody-targeted complement inhibition on acute graft injury. VC isografts were transplanted into Rag −/− mice or wildtype mice. Mice were treated with PBS, B4 IgM mAb or B4-Crry. Isolated VCAs were stained and scored using a histology scoring system."}, "transplanted heart": {"system": "transplanted heart", "experiment": "Cardiac allograft transplant model (B4scFv targeting strategy)", "assay_type": "in vivo, mice", "experimental": "(§1) A therapeutic strategy that exploited this post-ischemia recognition system of natural antibodies was then developed and characterized. Based on neoepitope identification, an anti-annexin-IV single chain antibody (B4scFv) and an scFv linked to Crry (B4scFv-Crry) was constructed. […] Further, post-ischemic expression of the B4scFv neoepitope has been observed in multiple tissues/organs in both mouse and humans. […] Liver biopsies were obtained from human donor livers following Tx and 1 hour reperfusion. […] Similar data was obtained with normal and ischemic brain samples obtained from stroke patients. Finally, it is shown herein that a decrease in anti-annexin IV Abs in human serum 24 hours after cardiac Tx as compared to pre-Tx levels (note that levels were not decreased in 2 patients, which is likely due to transfusion volume) (Table 1). […] In certain aspects, there may be benefits of a neoepitope vs. C3d targeting approach for protection against IRI in a transplant. […] Second, the targeting vehicle itself contributes to therapeutic activity by blocking the binding of complement activating pathogenic IgM, which in turn reduces the binding of Clq and MBL, which can impact inflammation, endothelial activation, cell trafficking, and Ag-presentation. Third, it is likely less immunosuppressive since not all sites of infection and C3 deposition will be targeted with complement inhibition."}, "annexin IV": {"molecular_target": "T1, annexin IV (Homo sapiens, UniProt P09525)", "T1 construct": "Liver biopsies were obtained from human donor livers following Tx and 1 hour reperfusion; from tissue; host or cells: human donor liver biopsies after transplantation and 1 hour reperfusion", "T1 sequence (P09525 2-319 limits assumed)": "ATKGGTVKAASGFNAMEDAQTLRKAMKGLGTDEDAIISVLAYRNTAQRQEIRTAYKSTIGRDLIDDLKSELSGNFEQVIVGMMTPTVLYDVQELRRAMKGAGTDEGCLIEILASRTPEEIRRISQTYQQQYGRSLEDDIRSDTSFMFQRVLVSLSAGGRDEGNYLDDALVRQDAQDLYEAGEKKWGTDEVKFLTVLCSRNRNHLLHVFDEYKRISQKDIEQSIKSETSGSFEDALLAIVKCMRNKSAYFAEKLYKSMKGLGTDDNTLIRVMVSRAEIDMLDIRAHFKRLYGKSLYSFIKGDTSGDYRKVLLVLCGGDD", "experiment": "Immunohistochemistry of human donor liver biopsies following Tx and 1 hour reperfusion", "assay_type": "binding", "experimental": "as §1"}, "[1]": {"system": "post-ischemic human brain", "experiment": "Binding to normal and ischemic brain samples from stroke patients", "experimental": "as §1"}, "[2]": {"molecular_target": "T2, annexin IV in post-ischemic mouse tissue (transplanted heart, brain-dead donor cardiac grafts, liver) (mouse, UniProt P97429 1-319, limits assumed)", "T2 construct": "The target was whole grafts or tissue", "T2 sequence (looked up)": "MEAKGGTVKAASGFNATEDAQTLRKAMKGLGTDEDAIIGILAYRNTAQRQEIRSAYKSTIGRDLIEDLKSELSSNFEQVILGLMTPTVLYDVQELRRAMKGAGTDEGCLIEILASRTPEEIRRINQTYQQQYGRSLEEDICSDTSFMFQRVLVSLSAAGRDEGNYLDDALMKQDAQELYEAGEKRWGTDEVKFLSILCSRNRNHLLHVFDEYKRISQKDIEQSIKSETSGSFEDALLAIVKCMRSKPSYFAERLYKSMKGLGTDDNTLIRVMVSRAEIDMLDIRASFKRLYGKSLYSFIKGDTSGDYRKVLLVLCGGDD", "experiment": "perfusion of radiolabeled (125I) B4scFv-Crry through cardiac grafts of brain-dead or living donors, counted after flush", "experimental": "FIG. 5 depicts the Binding of ¹²⁵I-B4-Crry after perfusion of grafts of BD (3 hours) or living donors. […] After 5 minutes, flush with 0.5 ml PBS, weigh and count.\nIn this experiment, B4scFv-Crry was administered to the donor hearts as a constituent of the UW preservation solution. […] The donor heart was then isolated and perfused with 0.5 mL ice cold UW or I¹²⁵-B4scFv-Crry via the proximal aortic arch."}, "[3]": {"settings": "allograft transplant model, recipients with full natural antibody repertoire"}},
  "data": [
    {"molecule": "C=CC[C@@H]1/C=C(\\C)C[C@H](C)C[C@H](OC)[C@H]2O[C@@](O)(C(=O)C(=O)N3CCCC[C@H]3C(=O)O[C@H](/C(C)=C/[C@@H]3CC[C@@H](O)[C@H](OC)C3)[C@H](C)[C@@H](O)CC1=O)[C@H](C)C[C@@H]2OC", "note": "[Tacrolimus, reference compound]", "values": [
      {"measurement": "graft survival", "setting": "allogeneic grafts; tacrolimus alone, 1 mg/kg/day (subtherapeutic)", "result": "does not prolong survival"}
    ]},
    {"molecule": "B1", "values": [
      {"measurement": "Ischemia reperfusion injury (skin and muscle histopathological score)", "setting": "VC isografts", "result": "protection from IRI"},
      {"measurement": "cardiac graft inflammation and injury", "setting": "transplanted heart; allograft transplant model", "result": "significantly reduced"},
      {"measurement": "complement activation in graft", "setting": "transplanted heart; [3]", "result": "blocked"},
      {"measurement": "graft IgM binding", "setting": "transplanted heart; [3]", "result": "blocked"},
      {"measurement": "targeting to the transplanted heart", "setting": "transplanted heart; cardiac Tx model", "result": "specifically targeted to the transplanted heart"},
      {"measurement": "immunity to infection", "setting": "transplanted heart; compared with complement deficiency", "result": "did not affect immunity to infection"},
      {"measurement": "staining of biopsies obtained post-Tx", "setting": "annexin IV; human liver biopsies post-Tx", "result": "stained biopsies obtained post-Tx"},
      {"measurement": "staining of samples from normal biopsies", "setting": "annexin IV; normal human liver biopsies", "result": "not samples from normal biopsies"},
      {"measurement": "binding to post-ischemic human liver", "setting": "annexin IV; post-ischemic human liver", "result": "directly bind"},
      {"measurement": "binding to post-ischemic human brain", "setting": "[1]", "result": "directly bind"},
      {"measurement": "graft survival", "setting": "allogeneic grafts; B4-Crry at 0 and 24 hours post-transplant combined with tacrolimus 1 mg/kg/day, vs. tacrolimus alone", "result": "significantly prolongs graft survival"}
    ]},
    {"molecule": "B2", "values": [
      {"measurement": "fold higher binding in BD vs. living donor grafts", "setting": "[2]", "result": 7, "unit": "fold"}
    ]}
  ]
}
